Laboratory results: patent US20200087367A1 (ACCELERON PHARMA, published 2020)

Tests used:
Experiment in all cases: SPR, captured hENG-hFc, soluble BMP9; '-' = Binding undetectable
[1] = target: T1, hENG(61-346)-hFc (human, UniProt P17813 61-346)
T1 construct: HEK 293, purified; not shown: linker and human IgG1 Fc domain
T1 sequence: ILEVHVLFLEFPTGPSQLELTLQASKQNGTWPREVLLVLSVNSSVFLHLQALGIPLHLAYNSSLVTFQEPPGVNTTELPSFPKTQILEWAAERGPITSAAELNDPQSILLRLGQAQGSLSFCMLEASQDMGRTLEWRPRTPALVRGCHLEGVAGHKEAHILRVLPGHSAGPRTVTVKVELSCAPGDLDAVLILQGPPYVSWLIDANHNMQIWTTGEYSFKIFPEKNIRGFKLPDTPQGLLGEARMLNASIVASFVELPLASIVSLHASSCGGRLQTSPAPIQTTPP
Protocol: (§1) SPR methodology was used to screen these hENG-hFc protein variants for high-affinity binding to human BMP9 and BMP10. In these experiments, captured hENG-hFc proteins were exposed to soluble BMP9 or BMP10 at 100 nM each.

[2] = target: T2, hENG(26-329)-hFc (human, UniProt P17813 26-329)
T2 construct: HEK 293, purified; not shown: linker and human IgG1 Fc domain
T2 sequence: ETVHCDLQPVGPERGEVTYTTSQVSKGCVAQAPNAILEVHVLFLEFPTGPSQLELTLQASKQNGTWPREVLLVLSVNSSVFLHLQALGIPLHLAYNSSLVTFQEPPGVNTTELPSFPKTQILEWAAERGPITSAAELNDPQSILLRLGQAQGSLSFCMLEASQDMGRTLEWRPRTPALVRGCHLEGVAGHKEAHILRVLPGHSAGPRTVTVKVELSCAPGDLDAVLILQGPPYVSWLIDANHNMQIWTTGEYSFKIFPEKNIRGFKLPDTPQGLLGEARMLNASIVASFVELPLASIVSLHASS
Protocol: as §1

[3] = target: T3, hENG(438-586)-hFc (human, UniProt P17813 438-586)
T3 construct: HEK 293, purified; not shown: linker and human IgG1 Fc domain
T3 sequence: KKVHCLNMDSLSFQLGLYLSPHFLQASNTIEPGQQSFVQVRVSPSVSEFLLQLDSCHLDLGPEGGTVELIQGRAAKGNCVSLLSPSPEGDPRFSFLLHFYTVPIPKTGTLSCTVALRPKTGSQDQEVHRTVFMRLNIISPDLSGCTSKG
Protocol: as §1

[4] = target: T4, hENG(26-332)-hFc (human, UniProt P17813 26-332)
T4 construct: HEK 293, purified; not shown: linker and human IgG1 Fc domain
T4 sequence: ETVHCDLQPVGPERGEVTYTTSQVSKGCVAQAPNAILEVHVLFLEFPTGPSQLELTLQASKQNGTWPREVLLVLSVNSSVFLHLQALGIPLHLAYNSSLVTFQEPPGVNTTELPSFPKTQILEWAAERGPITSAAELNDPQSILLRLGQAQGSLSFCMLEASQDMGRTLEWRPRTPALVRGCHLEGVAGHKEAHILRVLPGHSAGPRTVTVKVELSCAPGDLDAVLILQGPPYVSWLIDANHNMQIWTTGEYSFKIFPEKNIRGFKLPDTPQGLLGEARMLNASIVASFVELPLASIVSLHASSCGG
Protocol: as §1

[5] = target: T5, hENG(360-581)-hFc (human, UniProt P17813 360-581)
T5 construct: HEK 293, purified; not shown: linker and human IgG1 Fc domain
T5 sequence: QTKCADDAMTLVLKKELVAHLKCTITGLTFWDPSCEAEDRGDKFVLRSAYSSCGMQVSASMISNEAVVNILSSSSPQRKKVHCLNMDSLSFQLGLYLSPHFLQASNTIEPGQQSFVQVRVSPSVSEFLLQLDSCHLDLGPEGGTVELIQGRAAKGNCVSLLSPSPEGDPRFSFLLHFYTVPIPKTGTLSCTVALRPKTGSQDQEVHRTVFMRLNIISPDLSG
Protocol: as §1

[6] = target: T6, hENG(26-257)-hFc (human, UniProt P17813 26-257)
T6 construct: HEK 293, purified; not shown: linker and human IgG1 Fc domain
T6 sequence: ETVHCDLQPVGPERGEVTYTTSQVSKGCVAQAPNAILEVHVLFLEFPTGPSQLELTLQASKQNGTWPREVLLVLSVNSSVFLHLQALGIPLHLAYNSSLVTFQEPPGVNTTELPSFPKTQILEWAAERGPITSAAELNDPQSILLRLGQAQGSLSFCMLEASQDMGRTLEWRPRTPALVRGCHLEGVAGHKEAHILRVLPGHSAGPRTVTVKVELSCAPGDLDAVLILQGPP
Protocol: as §1

[7] = target: T7, hENG(360-586)-hFc (human, UniProt P17813 360-586)
T7 construct: HEK 293, purified; not shown: linker and human IgG1 Fc domain
T7 sequence: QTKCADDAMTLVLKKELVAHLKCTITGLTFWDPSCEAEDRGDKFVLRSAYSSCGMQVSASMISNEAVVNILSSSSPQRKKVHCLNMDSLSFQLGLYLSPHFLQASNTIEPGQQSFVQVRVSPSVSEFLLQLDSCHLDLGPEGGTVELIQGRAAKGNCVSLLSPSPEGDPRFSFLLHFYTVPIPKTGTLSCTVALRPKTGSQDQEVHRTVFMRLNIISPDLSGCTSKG
Protocol: as §1

[8] = target: T8, hENG(458-581)-hFc (human, UniProt P17813 458-581)
T8 construct: Expressed in COS cells, not purified; not shown: linker and human IgG1 Fc domain
T8 sequence: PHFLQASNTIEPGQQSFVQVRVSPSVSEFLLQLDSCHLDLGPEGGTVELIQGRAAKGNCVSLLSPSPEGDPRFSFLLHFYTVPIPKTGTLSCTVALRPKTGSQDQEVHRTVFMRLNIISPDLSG
Protocol: as §1

Measured: binding result

B1: BMP9 (ligand, human, UniProt Q9UK05 320-429, looked up)
chain: SAGAGSHCQKTSLRVNFEDIGWDSWIIAPKEYEAYECKGGCFFPLADDVTPTKHAIVQTLVHLKFPTKVGKACCVPTKLSPISVLYKDDMGVPTLKYHYEGMSVAECGCR
notes: also called hBMP-9; hBMP9
no binding (tested: 100 nM): all assays above
